Test results reported in patent US20200123254A1 (LENTIGEN TECHNOLOGY, published 2020).

Legend:
[1] = molecular target: T1, recombinant human CD19 (labeled CD19) (human, UniProt P15391 20-291, limits assumed, fluorescent label, kind and site not stated); test: flow cytometry of yeast-displayed scFv titrated with decreasing amounts of labeled CD19
T1 construct: The antigen titrated on yeast is only called 'labeled CD19'; also called fluorescently tagged antigen
T1 sequence (looked up): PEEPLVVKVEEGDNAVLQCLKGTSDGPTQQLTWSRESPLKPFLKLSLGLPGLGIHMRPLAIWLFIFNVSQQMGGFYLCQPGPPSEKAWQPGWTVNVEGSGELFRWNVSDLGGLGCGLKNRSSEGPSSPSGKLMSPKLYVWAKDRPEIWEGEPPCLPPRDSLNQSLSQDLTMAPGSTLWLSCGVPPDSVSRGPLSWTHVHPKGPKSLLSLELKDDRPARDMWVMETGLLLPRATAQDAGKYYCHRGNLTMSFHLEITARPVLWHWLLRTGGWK
Description: To increase the affinity of m19217, a yeast-display m19217 mutant scFv library was created by using error-prone PCR to create random point mutations in scFv gene sequences. After electroporation, the resulting mutant library was then grown overnight at 30° C. for 16 hours in SDCAA medium and then switched into SGCAA medium at 30° C. for another 16 hours. The mutant library was then sorted through MACS (immunomagentic column, Miltenyi Biotec) with CD19-Fc as the capture antigen to downsize the library and to increase the population of mutants that could bind to CD19-Fc. The strongest binders were then selected by double staining the pools with Anti-c-Myc-Alexa 488 and CD19-Fc/Anti-Hu-Fc and selecting for the binders that had the highest binding affinities as well as c-Myc expression levels. […] Binidng affinities were estimated by flow cytometry of yeast pools using decreasing amounts of labeled CD19.

[2] = molecular target: T2, CD19-Fc peptide (R&D, Minneapolis, Minn.) (UniProt P15391 20-291); test: flow cytometry of CAR-transduced primary human T cells stained with CD19-Fc then anti Fc-AF647; untransduced T cells set as 0%
T2 construct: Bought reagent; also called recombinant CD19-Fc peptide; not shown: Fc part; bought reagent, detected with anti-human Fc F(ab')2-AF647
T2 sequence (looked up): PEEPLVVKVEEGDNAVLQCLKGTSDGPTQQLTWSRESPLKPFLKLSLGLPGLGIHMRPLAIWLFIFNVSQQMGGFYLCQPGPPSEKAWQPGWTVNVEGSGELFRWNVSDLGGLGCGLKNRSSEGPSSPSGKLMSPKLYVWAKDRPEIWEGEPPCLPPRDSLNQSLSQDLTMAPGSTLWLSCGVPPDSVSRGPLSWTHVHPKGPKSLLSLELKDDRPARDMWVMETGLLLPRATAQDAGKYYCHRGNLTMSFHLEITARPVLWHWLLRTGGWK
Description: FIG. 3 depicts anti-CD19 CAR surface expression in primary human T cells. CAR T cells redirected to CD19 tumor antigen via the use of ScFv domains (as listed in each panel) were generated by lentiviral transduction with CAR expression constructs. CART detection was performed by flow cytometry. T cells were washed twice in cold PBS-EDTA buffer and stained with CD19-Fc peptide followed by anti Fc-AF647 reagent. At least 20,000 cells were acquired for each analysis. Cells were gated based on forward scatter and side scatter, singlet discrimination, and 7AAD negativity so that only viable cells were analyzed. Data were acquired on MACSQuant 10 flow cytometer in the APC channel. UTD, un-transduced negative control cells. The marker in each panel identifies the CAR-expressing population, and are listed as percent of total transduced T cells analyzed.
For cell staining, half a million CAR T transduced cells were harvested from culture, washed two times in cold AutoMACS buffer supplemented with 0.5% bovine serum albumin (Miltenyi Biotec), and CAR surface expression detected by staining with CD19-Fc peptide (R&D, Minneapolis, Minn.) followed by anti Fc-AF647 conjugate (Jackson ImmunoResearch, West Grove, Pa.). Non-transduced cells were used as negative controls. Dead cells in all studies were excluded by 7AAD staining (BD Biosciences, San Jose, Calif.). Cells were washed twice and resuspended in 200 ul Staining Buffer before quantitative analysis by flow cytometry. Flow cytometric analysis was performed on a MACSQuant®10 Analyzer (Miltenyi Biotec), and data plots were generated using FlowJo software (Ashland, Oreg.).
T cells were activated on culture Day 0 with TransAct T cell reagent (active engagement of CD3 and CD28 antigens, Miltenyi Biotec, Inc.) in the presence of IL-2 as described in Materials and Methods. On culture Day 8-10, expression of anti-CD19 CARs on T cell surface was detected by CD19-Fc peptide followed by anti Fc-AF647 and analyzed by flow cytometry.

B1: human anti-CD19 ScFv binder M19217 (scFv)
scFv: EVQLVQSGAEVKKPGASVKVSCKASGYTFTSYYMHWVRQAPGQGLEWMGIINPSGGSTSYAQKFQGRVTMTRDTSTSTVYMELSSLRSEDTAVYYCARSDRGITATDAFDIWGQGTMVTVSSGGGGSGGGGSGGGGSQSVLTQPPSVSVAPGQTAKITCGGSDIGNKNVHWYQQKPGQAPVLVVYDDYDRPSGIPERFSGSNSGDAATLTISTVEVGDEADYFCQVWDSSGDPYWVFGGGTQLTVLG
notes: also called ScFv1; founder clone
EC50 [1]: 0.5 µg/mL

B2: human anti-CD19 ScFv binder M19217-29 (scFv)
scFv: EVQLVQSGAEVKKPGASVKVSCKASGYTFTSYYMHWVRQAPGQGLEWMGMINPSGGSTSYAQKFQGRVTMTRDTSTSTVYMELSSLRSEDTAVYYCARSDRGITATDAFDIWGQGTMVTVSSGGGGSGGGGSGGGGSQSVLTQPPSVSVAPGQTAKITCGGSDIGNKNAHWYQQKPGQAPVLVVYDDYDRPSGISERFSGSNSGDAATLTISTVEVGDEADYFCQVWDGSGDPFWVFGGGTQLTVLG
notes: also called ScFv6
EC50 [1]: < 0.01 µg/mL

B3: human anti-CD19 ScFv binder M19217-40 (scFv)
scFv: EVQLVQSGAEVKRPGASVKVSCKASGYTFTSYYMHWVRQAPGQGLVWMGLINPSGGSTSYAQKFQGRVTMTRDTSTSTVYMELSSLRSEDTAVYYCARSDRGITATDAFDIWGQGTMVTVSSGGGGSGGGGSGGGGSQSVLTQPPSVSVAPGQTAKTTCGGSDIGNKNVHWYQQKPGQAPVLVVYDDYDRPSGIPERFSGSNSGDAATLTISTVEVGDEADYVCQVWDGSGDPYWVFGGGTQLTVLG
notes: also called ScFv8
EC50 [1]: < 0.01 µg/mL

B4: human anti-CD19 ScFv binder M19217-1 (scFv)
scFv: EVQLVQSGAEVKKPGASVKVSCKASGYTFTSYYMHWVRQAPGQGLEWMGLINPSGGSTSYAQKFQGRVTMTRDTSTSTVYMELSSLRSEDTAVYYCARSDRGITATDAFDIWGQGTMVTVSSGGGGSGGGGSGGGGSQSVLTQPPSVSVAPGRMAKITCGGSDIGNKNVHWYQQKPGQAPVLVVYDDYDRPSGIPERFSGSNSGDAATLTISTVEVGDEADYFCQVWDGSGDPYWMFGGGTQLTVLG
notes: also called ScFv2
EC50 [1]: < 0.01 µg/mL

B5: human anti-CD19 ScFv binder M19217-38 (scFv)
scFv: EVQLVQSGAEVKRPGASVKVSCKASGYTFTSYYMHWVRQAPGRGLEWMGLINPSGGSTSYAQEFQGRVTMTRDMSTSTVYMELSSLRSEDTAVYYCARSDRGISATDAFDIWGQGTMVTVSSGGGGSGGGGSGGGGSQSVLTQPPSVSVAPGQMAKITCGGSDIGNKNVHWYQQKPGQAPVLVVYDDYNRPSGIPERFSGSNSGDAATLTISTVEVGDEADYFCQVWDGSGDPYWVFGGGTQLTDLG
notes: also called ScFv7
EC50 [1]: < 0.01 µg/mL

B6: human anti-CD19 ScFv binder M19217-2 (scFv)
scFv: EVQLVQSGAEVKKPGASVKVSCKASGYTFTSYYMHWVRQAPGQGFEWMGLINPSGSSTSYAQKFQGRVTMTRDTSTSTVYMELSNLRSEDTAVYYCARSDRGITATDAFDIWGQGTMVTVSSGGGGSGGGGSGGGGSQSVLTQPPSVPVAPGQTAKIICGGSDIGNKNVHWYQQKPGQAPVLVVYDDYDRPSGIPERFSGSNSGDAATLTISTVEVGDEADYFCQVWDGSGDPYWVFGGGTQLTVLG
notes: also called ScFv3
EC50 [1]: < 0.01 µg/mL

B7: human anti-CD19 ScFv binder M19217-23 (scFv)
scFv: EVQLVQSGAEVKKPGASVKVSCKASGYTFTGYYMHWVRQAPGQGLEWIGLINPSGGSTSYEQKFQGRVAMTRDTSTSTVYMELSSLRSEDTAVYYCARSDRGITATDAFDIWGQGTMVTVSSGGGGSGGGGSGGGGSQSVLTQPPSVSVAPGQTAKITCGGSDIGDKNVHWYQQKPGQAPVLVVYDDYDRPSGIPERFSGSNSGDAATLTISTVEVGDEADYFCQVWDGIGDPYWVFGGGTQLTVLG
notes: also called ScFv5
EC50 [1]: < 0.01 µg/mL

B8: human anti-CD19 ScFv binder M19217-7 (scFv)
scFv: EVQLVQSGAEVNKPGASVKVSCKASGYTFTSYYMHWVRQAPGQGLEWMGMINPSGGSTSYAQKFQGRVTMTRDTSTSTVYMELSSLRSEDTAVYYCARSDRGITSTDAFDIWGQGTMVTVSSGGGGSGGGGSGGGGSQSVLTQPPSVSLAPGQTAKITCGGSDIGNKNVHWYQQKPGQAPVLVVYDDYNRPSGIPERFSGSNSGDSATLTISTVEVGDEADYFCQVWDGSGDPYWVFGGGTQLTVLG
notes: also called ScFv4
EC50 [1]: < 0.01 µg/mL

B9: LTG2050 (LP-M19217-CD8 TM-41BB-CD3 zeta) CAR (other)
chain: EVQLVQSGAEVKKPGASVKVSCKASGYTFTSYYMHWVRQAPGQGLEWMGIINPSGGSTSYAQKFQGRVTMTRDTSTSTVYMELSSLRSEDTAVYYCARSDRGITATDAFDIWGQGTMVTVSSGGGGSGGGGSGGGGSQSVLTQPPSVSVAPGQTAKITCGGSDIGNKNVHWYQQKPGQAPVLVVYDDYDRPSGIPERFSGSNSGDAATLTISTVEVGDEADYFCQVWDSSGDPYWVFGGGTQLTVLGAAATTTPAPRPPTPAPTIASQPLSLRPEACRPAAGGAVHTRGLDFACDIYIWAPLAGTCGVLLLSLVITLYCKRGRKKLLYIFKQPFMRPVQTTQEEDGCSCRFPEEEEGGCELRVKFSRSADAPAYQQGQNQLYNELNLGRREEYDVLDKRRGRDPEMGGKPRRKNPQEGLYNELQKDKMAEAYSEIGMKGERRRGKGHDGLYQGLSTATKDTYDALHMQALPPR
notes: Chimeric antigen receptor on the surface of transduced primary human T cells; also called ScFv1-CD8 TM-41BB-CD3 zeta
CAR expression level (percent of transduced T cells stained by CD19-Fc) [2]: 46%

B10: LTG2065 (LP-M19217-1-CD8 TM-41BB-CD3 zeta) CAR (other)
chain: EVQLVQSGAEVKKPGASVKVSCKASGYTFTSYYMHWVRQAPGQGLEWMGLINPSGGSTSYAQKFQGRVTMTRDTSTSTVYMELSSLRSEDTAVYYCARSDRGITATDAFDIWGQGTMVTVSSGGGGSGGGGSGGGGSQSVLTQPPSVSVAPGRMAKITCGGSDIGNKNVHWYQQKPGQAPVLVVYDDYDRPSGIPERFSGSNSGDAATLTISTVEVGDEADYFCQVWDGSGDPYWMFGGGTQLTVLGAAATTTPAPRPPTPAPTIASQPLSLRPEACRPAAGGAVHTRGLDFACDIYIWAPLAGTCGVLLLSLVITLYCKRGRKKLLYIFKQPFMRPVQTTQEEDGCSCRFPEEEEGGCELRVKFSRSADAPAYQQGQNQLYNELNLGRREEYDVLDKRRGRDPEMGGKPRRKNPQEGLYNELQKDKMAEAYSEIGMKGERRRGKGHDGLYQGLSTATKDTYDALHMQALPPR
notes: Chimeric antigen receptor on the surface of transduced primary human T cells; also called ScFv2-CD8TM-4-1BB-CD3 zeta
CAR expression level (percent of transduced T cells stained by CD19-Fc) [2]: 64%

B11: LTG2067 (LP-M19217-7-CD8 TM-41BB-CD3 zeta) CAR (other)
chain: EVQLVQSGAEVNKPGASVKVSCKASGYTFTSYYMHWVRQAPGQGLEWMGMINPSGGSTSYAQKFQGRVTMTRDTSTSTVYMELSSLRSEDTAVYYCARSDRGITSTDAFDIWGQGTMVTVSSGGGGSGGGGSGGGGSQSVLTQPPSVSLAPGQTAKITCGGSDIGNKNVHWYQQKPGQAPVLVVYDDYNRPSGIPERFSGSNSGDSATLTISTVEVGDEADYFCQVWDGSGDPYWVFGGGTQLTVLGAAATTTPAPRPPTPAPTIASQPLSLRPEACRPAAGGAVHTRGLDFACDIYIWAPLAGTCGVLLLSLVITLYCKRGRKKLLYIFKQPFMRPVQTTQEEDGCSCRFPEEEEGGCELRVKFSRSADAPAYQQGQNQLYNELNLGRREEYDVLDKRRGRDPEMGGKPRRKNPQEGLYNELQKDKMAEAYSEIGMKGERRRGKGHDGLYQGLSTATKDTYDALHMQALPPR
notes: Chimeric antigen receptor on the surface of transduced primary human T cells; also called ScFv4-CD8TM-4-1BB-CD3 zeta
CAR expression level (percent of transduced T cells stained by CD19-Fc) [2]: 81%

B12: LTG2066 (LP-M19217-2-CD8 TM-41BB-CD3 zeta) CAR (other)
chain: EVQLVQSGAEVKKPGASVKVSCKASGYTFTSYYMHWVRQAPGQGFEWMGLINPSGSSTSYAQKFQGRVTMTRDTSTSTVYMELSNLRSEDTAVYYCARSDRGITATDAFDIWGQGTMVTVSSGGGGSGGGGSGGGGSQSVLTQPPSVPVAPGQTAKIICGGSDIGNKNVHWYQQKPGQAPVLVVYDDYDRPSGIPERFSGSNSGDAATLTISTVEVGDEADYFCQVWDGSGDPYWVFGGGTQLTVLGAAATTTPAPRPPTPAPTIASQPLSLRPEACRPAAGGAVHTRGLDFACDIYIWAPLAGTCGVLLLSLVITLYCKRGRKKLLYIFKQPFMRPVQTTQEEDGCSCRFPEEEEGGCELRVKFSRSADAPAYQQGQNQLYNELNLGRREEYDVLDKRRGRDPEMGGKPRRKNPQEGLYNELQKDKMAEAYSEIGMKGERRRGKGHDGLYQGLSTATKDTYDALHMQALPPR
notes: Chimeric antigen receptor on the surface of transduced primary human T cells; also called ScFv3-CD8TM-4-1BB-CD3 zeta
CAR expression level (percent of transduced T cells stained by CD19-Fc) [2]: 21%
